Test results reported in US20120253009A1.
Bridge positions count the residues as written; N and C are the ends. Ends that are not written are not given here.

B1: Fc-Loop-(SEQ ID NO: 10) (Fc fusion, part only; not given: Fc-Loop scaffold and insertion site, part only)
chain, part: CSSGGPTLREWQQCGRAQ
modifications: disulfide 1-14 (inferred); also: inserted into an Fc-Loop, Fc, site and spacers not given here
B2: Fc-Loop-(SEQ ID NO: 8) (Fc fusion, part only; not given: Fc-Loop scaffold and insertion site, part only)
chain, part: CSSGGPTLREWQQCSRAQ
modifications: disulfide 1-14 (inferred); also: inserted into an Fc-Loop, Fc, site and spacers not given here
B3: Fc-Loop-(SEQ ID NO: 9) (Fc fusion, part only; not given: Fc-Loop scaffold and insertion site, part only)
chain, part: CSSGGPTLREWQQCQRAQ
modifications: disulfide 1-14 (inferred); also: inserted into an Fc-Loop, Fc, site and spacers not given here

These binders were tested against human mpl receptor (human) (UniProt P40238) (assay: cell-based or functional assay).
Binder B1 has a Pb EC50 of 2.31 ng/mL. Work on B2 yielded a Pb EC50 of 0.28 ng/mL. With B3 the Pb EC50 was 0.27 ng/mL.
